Common to all, as to details: protein: recombinant; label: 32P 5' end; blunt
In series [1] the target is T1, GST-Pax6 paired domain (PD) (UniProt P63015 4-130). Briefly: EMSA; EMSA: 2 ug protein, 20000 cpm 32P probe, 1 ug poly(dI-dC), 5% TBE polyacrylamide gel; buffer, salt, pH and temperature not given (as in ref. 35). For orientation: Mobility shift assays separate free from complexed probe on a gel.
Series [2] has as its target GST-Pax6(5a) paired domain (PD5a) (UniProt P63015-2 4-144). The series is described as above.
Series [3] addresses T1, GST-Pax6 paired domain (PD). Put plainly: EMSA; stronger than WT; EMSA: 2 ug protein, 20000 cpm 32P probe, 1 ug poly(dI-dC), 5% TBE polyacrylamide gel; buffer, salt, pH and temperature not given (as in ref. 35).

T1 sequence (P63015 4-130): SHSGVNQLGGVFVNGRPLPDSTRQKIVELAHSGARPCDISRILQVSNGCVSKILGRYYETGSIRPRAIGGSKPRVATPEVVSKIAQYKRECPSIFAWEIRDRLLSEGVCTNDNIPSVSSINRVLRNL
Sequence of GST-Pax6(5a) paired domain (PD5a) (P63015 other isoform, or with tags, fused parts or gaps): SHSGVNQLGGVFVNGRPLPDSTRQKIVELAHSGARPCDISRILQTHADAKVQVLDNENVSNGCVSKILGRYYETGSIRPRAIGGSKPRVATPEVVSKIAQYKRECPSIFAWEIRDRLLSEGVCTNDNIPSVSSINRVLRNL

B1: mDkk3 BSAP WT (dsDNA)
DNA 1: CATCTGGGGGCGGGCAGAGCAGCGGGGCGGGGCGGGACGGGCAAGAGGGG
DNA 2: CCCCTCTTGCCCGTCCCGCCCCGCCCCGCTGCTCTGCCCGCCCCCAGATG
Turning to B1, the binding result is recorded as “binds” in series [1] and “no binding” in series [2].

B2: mDkk3 5aCON MUT (dsDNA)
DNA 1: GGAGGAAGCTACCCTGTATCCGATTTTTCGAGAGGTGGAGGAG
DNA 2: CTCCTCCACCTCTCGAAAAATCGGATACAGGGTAGCTTCCTCC
Turning to B2, the binding result in series [3] is “binds”.

B3: mDkk3 5aCON OPT (dsDNA)
DNA 1: GGAGGAAGCTATGCTCAGTGAGATGTTCATTGAGGTGGAGGAG
DNA 2: CTCCTCCACCTCAATGAACATCTCACTGAGCATAGCTTCCTCC
In the case of B3, in series [3], the binding result is on record as “binds”.

These data come from publication PMC4100929, “Pax6 Regulates the Expression of Dkk3 in Murine and Human Cell Lines, and Altered Responses to Wnt Signaling Are Shown in FlpIn-3T3 Cells Stably Expressing Either the Pax6 or the Pax6(5a) Isoform”.
